From patent US6410775
Values joined by “and” are separate entries in the source; they are usually repeats but may differ in a detail not shown here. Identical values can stand only once. One block for each binder: values may come before it. Bridge positions count the residues as written; N and C are the ends. Square brackets hold non-standard residues; d marks the D form. Ends that are not written are not given here. αMeP = C[C@@]1(C(=O)O)CCCN1

Key:
ACA-6501 aPL antibody [1] = assay: competitive ELISA on plate-bound tetravalent 3B10
ACA-6701 aPL antibody [2] = assay: fluorescence polarization
ACA-6701 aPL antibody [3] = assay: competitive fluorescence polarization (cFP), displacement of CB2*-F
[4] = target: nine affinity purified ACA antibodies; assay: competitive ELISA on CL/β2-GPI plates, peptide monomer 1 mg/mL; average of nine ACA
ACA-6626 aPL antibody [5] = assay: competitive ELISA on CL/β2-GPI plates, peptide monomer 1 mg/mL, affinity-purified ACA
ACA-7005 aPL antibody [6] = assay: as above
ACA-6501 aPL antibody [7] = assay: as above
ACA-6641 aPL antibody [8] = assay: as above
ACA-6701 aPL antibody [9] = assay: as above
ACA-6638 aPL antibody [10] = assay: as above
ACA-7004 aPL antibody [11] = assay: as above
ACA-6644 aPL antibody [12] = assay: as above
ACA-6903 aPL antibody [13] = assay: as above
ACA-6626 aPL antibody [14] = assay: competitive ELISA on CL/β2-GPI plates, peptide monomer 200 µg/mL, affinity-purified ACA
ACA-7005 aPL antibody [15] = assay: as above
ACA-6501 aPL antibody [16] = assay: as above
ACA-6641 aPL antibody [17] = assay: as above
ACA-6701 aPL antibody [18] = assay: as above
ACA-6638 aPL antibody [19] = assay: as above
ACA-7004 aPL antibody [20] = assay: as above
ACA-6644 aPL antibody [21] = assay: as above
ACA-6903 aPL antibody [22] = assay: as above
[23] = target: nine affinity purified ACA antibodies; assay: competitive ELISA on CL/β2-GPI plates, peptide monomer 200 µg/mL; average of nine ACA
ACA-6644 aPL antibody [24] = assay: competitive ELISA, ACA serum (printed 664) on cardiolipin/β2-GPI-coated plates
[25] = target: ACA sera [1]-[10] of Table 7; assay: competitive ELISA; mean ± sd over the ten ACA sera
ACA-6626 aPL antibody [26] = assay: competitive ELISA, ACA serum on cardiolipin/β2-GPI-coated plates
ACA-7005 aPL antibody [27] = assay: as above
ACA-6501 aPL antibody [28] = assay: as above
ACA-6635 aPL antibody [29] = assay: as above
ACA-6641 aPL antibody [30] = assay: as above
ACA-6701 aPL antibody [31] = assay: as above
ACA-6638 aPL antibody [32] = assay: as above
ACA-7004 aPL antibody [33] = assay: as above
ACA-6903 aPL antibody [34] = assay: as above
ACA-6626 aPL antibody [35] = assay: competitive ELISA, peptide at 1.8 mg/mL; members from Table 7
ACA-7005 aPL antibody [36] = assay: as above
ACA-6501 aPL antibody [37] = assay: as above
ACA-6635 aPL antibody [38] = assay: as above
ACA-6641 aPL antibody [39] = assay: as above
ACA-6701 aPL antibody [40] = assay: as above
ACA-6638 aPL antibody [41] = assay: as above
ACA-7004 aPL antibody [42] = assay: as above
ACA-6644 aPL antibody [43] = assay: as above
ACA-6903 aPL antibody [44] = assay: as above
ACA-6501 aPL antibody [45] = assay: competitive ELISA I50; antibody not given, ACA-6501 serum on CL/β2-GPI assumed (Ex. 4B)
ACA-6501 aPL antibody [46] = assay: aPL antibody binding of modified 3B10 peptides
ACA-6501 aPL antibody [47] = assay: competitive ELISA on plate-bound tetravalent 3B10, ACA-6501 serum

fold increase of the 50% inhibition concentration against peptide 142 (ACA-6501 aPL antibody [1]): 8 fold
B1: peptide 139 (3B10 lacking the framework Ala-Gly at the amino terminus) (peptide)
peptide: PCLLLAPDRCPG

fold improvement in binding against CB2*-F (ACA-6701 aPL antibody [2]): 14 fold
Ki (ACA-6701 aPL antibody [3]): 35 nM
B2: CB2* … (peptide)
peptide: GPCILLARDRCG
modifications: disulfide 3-11 (inferred)

percent inhibition (Ave.) [4]: 52%
percent inhibition (ACA-6626 aPL antibody [5]): 43%
percent inhibition (ACA-7005 aPL antibody [6]): 23%
percent inhibition (ACA-6501 aPL antibody [7]): 41%
percent inhibition (ACA-6641 aPL antibody [8]): 43%
percent inhibition (ACA-6701 aPL antibody [9]): 96%
percent inhibition (ACA-6638 aPL antibody [10]): 65%
percent inhibition (ACA-7004 aPL antibody [11]): 72%
percent inhibition (ACA-6644 aPL antibody [12]): 37%
percent inhibition (ACA-6903 aPL antibody [13]): 51%
B3: peptide ACA-6701/3B1 … (peptide)
peptide: AGPLSDPGYVRNIFHPG

percent inhibition (ACA-6626 aPL antibody [14]): 37%
percent inhibition (ACA-7005 aPL antibody [15]): 57%
percent inhibition (ACA-6501 aPL antibody [16]): 37%
percent inhibition (ACA-6641 aPL antibody [17]): 28%
percent inhibition (ACA-6701 aPL antibody [18]): 22%
percent inhibition (ACA-6638 aPL antibody [19]): 60%
percent inhibition (ACA-7004 aPL antibody [20]): 54%
percent inhibition (ACA-6644 aPL antibody [21]): 18%
percent inhibition (ACA-6903 aPL antibody [22]): 43%
percent inhibition (Ave.) [23]: 39%
B4: peptide ACA-6644/CBf … (peptide)
peptide: GILALDYVGG

fold weaker binding against CB2* (ACA-6701 aPL antibody [2]): 9 fold
percent inhibition (Ave.) [4]: 65%
percent inhibition (ACA-6626 aPL antibody [5]): 76%
percent inhibition (ACA-7005 aPL antibody [6]): 47%
percent inhibition (ACA-6501 aPL antibody [7]): 60%
percent inhibition (ACA-6641 aPL antibody [8]): 52%
percent inhibition (ACA-6701 aPL antibody [9]): 51%
percent inhibition (ACA-6638 aPL antibody [10]): 87%
percent inhibition (ACA-7004 aPL antibody [11]): 87%
percent inhibition (ACA-6644 aPL antibody [12]): 55%
percent inhibition (ACA-6903 aPL antibody [13]): 69%
Ki (ACA-6701 aPL antibody [3]): 313 nM
B5: peptide ACA-6501/3B10 … (monomer) (peptide)
peptide: AGPCLLLAPDRCPG

IC50 (ACA-6644 aPL antibody [24]): 760 µg/mL
percent inhibition (Ave.) [4]: 97%
percent inhibition (ACA-6626 aPL antibody [5]): 100%
percent inhibition (ACA-7005 aPL antibody [6]): 95%
percent inhibition (ACA-6501 aPL antibody [7]): 86%
percent inhibition (ACA-6641 aPL antibody [8]): 93%
percent inhibition (ACA-6701 aPL antibody [9]): 100%
percent inhibition (ACA-6638 aPL antibody [10]): 100%
percent inhibition (ACA-7004 aPL antibody [11]): 100%
percent inhibition (ACA-6644 aPL antibody [12]): 100%
percent inhibition (ACA-6903 aPL antibody [13]): 100%
IC50 [25]: 860 µg/mL
IC50 (ACA-6626 aPL antibody [26]): 1090 µg/mL
IC50 (ACA-7005 aPL antibody [27]): 750 µg/mL
IC50 (ACA-6501 aPL antibody [28]): 890 µg/mL and 1100 µg/mL
IC50 (ACA-6635 aPL antibody [29]): 1000 µg/mL
IC50 (ACA-6641 aPL antibody [30]): 890 µg/mL and 510 µg/mL
IC50 (ACA-6701 aPL antibody [31]): 1070 µg/mL
IC50 (ACA-6638 aPL antibody [32]): 810 µg/mL
IC50 (ACA-7004 aPL antibody [33]): 670 µg/mL
IC50 (ACA-6903 aPL antibody [34]): 800 µg/mL
percent inhibition (ACA-6626 aPL antibody [35]): > 80%
percent inhibition (ACA-7005 aPL antibody [36]): > 80%
percent inhibition (ACA-6501 aPL antibody [37]): 80%
percent inhibition (ACA-6635 aPL antibody [38]): > 80%
percent inhibition (ACA-6641 aPL antibody [39]): > 80%
percent inhibition (ACA-6701 aPL antibody [40]): > 80%
percent inhibition (ACA-6638 aPL antibody [41]): > 80%
percent inhibition (ACA-7004 aPL antibody [42]): > 80%
percent inhibition (ACA-6644 aPL antibody [43]): > 80%
percent inhibition (ACA-6903 aPL antibody [44]): > 80%
IC50 (ACA-6501 aPL antibody [45]): 850 µg/mL
B6: peptide ACA-6641/3G3 … (LJP 688) (peptide)
peptide: AGPCLGVLGKLCPG

fold enhancement in immunoreactivity against 3B10 (ACA-6501 aPL antibody [46]): 6 fold
fold increase in activity against native 3B10 (ACA-6501 aPL antibody [47]): 4 fold
B7: peptide 727 (3B10 with αMe-Pro at the 9 position) (peptide)
peptide: AGPCLLLA[αMeP]DRCPG
modifications: cysteine pairing not given here
